The supplement of paper PMC9233669
Fewer inactive variants are shown than the library holds.

What was measured:
biotinyl-Phe-oxazolone = test: self-aminoacylation, catalytic enhancement (BFO) (fold over background); higher = more active; k-Seq, kA / k0A0; sequences stand for … in GGGAAUGGAUCCACAUCUACGAAUUC…UUCACUGCAGACUUGACGAAGCUG
How it was run: (§1)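 Working in 50 μL HEPES/NaCl/KCl/MgCl2/CaCl2 buffer with 5% acetonitrile at pH 6.9–7.0, mutagenized RNA pools (0.43 μM; 21-nt variable region) were reacted with 2–1250 μM of each biotinyl-aminoacyl-oxazolone for 90 minutes at room temperature. Streptavidin capture followed, with quantification by triplicate qPCR and Illumina sequencing. Catalytic enhancement is reported as median kA over the uncatalyzed rate, the low-activity peak of a bimodal Gaussian fit to the data.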

biotinyl-Ile-oxazolone = test: self-aminoacylation, catalytic enhancement (BIO) (fold over background); higher = more active; k-Seq, kA / k0A0; sequences stand for … in GGGAAUGGAUCCACAUCUACGAAUUC…UUCACUGCAGACUUGACGAAGCUG
How it was run: as §1

biotinyl-Met-oxazolone = test: self-aminoacylation, catalytic enhancement (BMO) (fold over background); higher = more active; k-Seq, kA / k0A0; sequences stand for … in GGGAAUGGAUCCACAUCUACGAAUUC…UUCACUGCAGACUUGACGAAGCUG
How it was run: as §1

biotinyl-Val-oxazolone = test: self-aminoacylation, catalytic enhancement (BVO) (fold over background); higher = more active; k-Seq, kA / k0A0; sequences stand for … in GGGAAUGGAUCCACAUCUACGAAUUC…UUCACUGCAGACUUGACGAAGCUG
How it was run: as §1

biotinyl-Leu-oxazolone = test: self-aminoacylation, catalytic enhancement (BLO) (fold over background); higher = more active; k-Seq, kA / k0A0; sequences stand for … in GGGAAUGGAUCCACAUCUACGAAUUC…UUCACUGCAGACUUGACGAAGCUG
How it was run: as §1

biotinyl-Trp-oxazolone = test: self-aminoacylation, catalytic enhancement (BWO) (fold over background); higher = more active; k-Seq, kA / k0A0; sequences stand for … in GGGAAUGGAUCCACAUCUACGAAUUC…UUCACUGCAGACUUGACGAAGCUG
How it was run: as §1

Sequence	self-aminoacylation (biotinyl-Phe-oxazolone)	self-aminoacylation (biotinyl-Ile-oxazolone)	self-aminoacylation (biotinyl-Met-oxazolone)	self-aminoacylation (biotinyl-Val-oxazolone)	self-aminoacylation (biotinyl-Leu-oxazolone)	self-aminoacylation (biotinyl-Trp-oxazolone)
AUUACCCUGGUCAACGAGAGA [Fam2.1 aminoacylation ribozyme variant]	0.544	0.807	0.82	0.904	0.664	0.896
AUUACCCUGGUCAAGGAGUGA [Fam2.1 aminoacylation ribozyme variant]	3.96	1.94	3.47	2.04	2.87	3.32
AUUACCCUGGUCACCGUGUGA [Fam2.1 aminoacylation ribozyme variant]	21.1	1.98	3.88	2.06	3.95	5.51
AUUACCCUGGUCACCUAGUGA [Fam2.1 aminoacylation ribozyme variant]	25.9	2.12	4.99	2.49	4.95	5.72
AUUACCCUGGUCAGCGAGAGA [Fam2.1 aminoacylation ribozyme variant]	0.961	1.43	1.27	1.51	1.26	1.54
AUUACCCUGGUCAGCGAGUAA [Fam2.1 aminoacylation ribozyme variant]	0.633	1.19	1.48	1.27	1.14	0.914
AUUACCCUGGUCAGGGAGUGA [Fam2.1 aminoacylation ribozyme variant]	18.9	2.57	3.36	2.54	3.27	2.41
AUUACCCUGGUCAUAGAGUGA [Fam2.1 aminoacylation ribozyme variant]	54.8	4.72	10.4	4.94	9.8	11.9
AUUACCCUGGUCAUAGGGUGA [Fam2.1 aminoacylation ribozyme variant]	42.3	4.03	6.67	3.12	7.73	7.12
AUUACCCUGGUCAUCAAAUGA [Fam2.1 aminoacylation ribozyme variant]	1.1	1.1	1.14	0.806	0.969	0.735
AUUACCCUGGUCAUCAAGCGA [Fam2.1 aminoacylation ribozyme variant]	0.84	0.846	1	1.13	0.895	0.661
AUUACCCUGGUCAUCAAGUGA [Fam2.1 aminoacylation ribozyme variant]	4.11	1.51	2.31	1.79	2.25	2.87
AUUACCCUGGUCAUCCAUUGA [Fam2.1 aminoacylation ribozyme variant]	1.15	1.08	0.84	1.08	1.14	0.684
AUUACCCUGGUCAUCCCGUGA [Fam2.1 aminoacylation ribozyme variant]	43.3	3.61	7.44	4.22	9.66	9.33
AUUACCCUGGUCAUCGAAUGU [Fam2.1 aminoacylation ribozyme variant]	0.64	0.894	0.925	0.788	1.06	0.653
AUUACCCUGGUCAUCGAAUUA [Fam2.1 aminoacylation ribozyme variant]	0.751	1.26	1.5	1.18	0.955	0.504
AUUACCCUGGUCAUCGAGCGA [Fam2.1 aminoacylation ribozyme variant]	3.41	2.15	3.51	2.18	3.7	3.33
AUUACCCUGGUCAUCGAGUCG [Fam2.1 aminoacylation ribozyme variant]	0.759	0.765	0.797	0.976	0.794	0.725
AUUACCCUGGUCAUCGAGUUA [Fam2.1 aminoacylation ribozyme variant]	26.4	4.08	10.8	4.86	10.3	8.28
AUUACCCUGGUCAUCGCGUGA [Fam2.1 aminoacylation ribozyme variant]	139	8.09	18.3	9.74	20.3	20.1
AUUACCCUGGUCAUCGGGUGA [Fam2.1 aminoacylation ribozyme variant]	711	47	122	60.9	133	140
AUUACCCUGGUCAUCGGGUGU [Fam2.1 aminoacylation ribozyme variant]	722	40.7	123	56.5	136	133
AUUACCCUGGUCAUCGGGUUA [Fam2.1 aminoacylation ribozyme variant]	218	12.3	38.5	17.8	42.4	45.8
AUUACCCUGGUCAUCGGUUGA [Fam2.1 aminoacylation ribozyme variant]	6.78	1.62	2	1.34	1.94	3.08
AUUACCCUGGUCAUCGUAUGA [Fam2.1 aminoacylation ribozyme variant]	0.633	0.789	0.984	1.02	0.814	0.855
AUUACCCUGGUCAUCGUGGGA [Fam2.1 aminoacylation ribozyme variant]	4.91	1.18	1.33	1.22	1.58	1.98

Sequence	self-aminoacylation (biotinyl-Phe-oxazolone)	self-aminoacylation (biotinyl-Ile-oxazolone)	self-aminoacylation (biotinyl-Met-oxazolone)	self-aminoacylation (biotinyl-Val-oxazolone)	self-aminoacylation (biotinyl-Leu-oxazolone)	self-aminoacylation (biotinyl-Trp-oxazolone)
AUUACCCUGGUCAUCUAGUGU [Fam2.1 aminoacylation ribozyme variant]	9.89	2.02	4.11	2.48	4.08	4.88
AUUACCCUGGUCAUGGAGGGA [Fam2.1 aminoacylation ribozyme variant]	2.1	1.82	1.83	1.76	1.86	2.23
AUUACCCUGGUCAUGGAGUCA [Fam2.1 aminoacylation ribozyme variant]	0.746	0.907	0.798	1.01	0.838	0.594
AUUACCCUGGUCAUUGCGUGA [Fam2.1 aminoacylation ribozyme variant]	108	6.44	15.8	7.31	18.1	17.1
AUUACCCUGGUCAUUUAGUGA [Fam2.1 aminoacylation ribozyme variant]	70	5.57	11.7	5.82	11.1	14.4
AUUACCCUGGUCCUCGCGUGA [Fam2.1 aminoacylation ribozyme variant]	87.3	5.45	11	7.66	15.1	13.8
AUUACCCUGGUCCUCGGGUGA [Fam2.1 aminoacylation ribozyme variant]	69.6	5.18	9.89	6.25	10.4	9.25
AUUACCCUGGUCCUCUAGUGA [Fam2.1 aminoacylation ribozyme variant]	79.1	4.37	9.46	5.33	10.6	12.3
AUUACCCUGGUCGCCGAGUGA [Fam2.1 aminoacylation ribozyme variant]	22.8	3.48	4.14	2.58	5.59	4.48
AUUACCCUGGUCGUCGAAUGA [Fam2.1 aminoacylation ribozyme variant]	3.37	0.785	1.22	0.838	0.734	1.1
AUUACCCUGGUCUACGAGUGA [Fam2.1 aminoacylation ribozyme variant]	25.5	3.67	6.17	3.68	6.37	7.19
AUUACCCUGGUCUUCGAAUGA [Fam2.1 aminoacylation ribozyme variant]	0.408	0.649	0.746	0.728	0.694	0.642
AUUACCCUGGUCUUGGAGUGA [Fam2.1 aminoacylation ribozyme variant]	5.63	2.27	2.24	1.98	3.23	4.3
AUUACCCUGGUGAUCGACUGA [Fam2.1 aminoacylation ribozyme variant]	0.543	1.05	0.951	1.02	1.12	0.743
AUUACCCUGGUGAUCGAGUCA [Fam2.1 aminoacylation ribozyme variant]	0.521	0.912	0.978	0.859	0.741	0.415
AUUACCCUGGUGAUGGAGUGA [Fam2.1 aminoacylation ribozyme variant]	31.1	2.62	5.67	2.55	5.75	5.69
AUUACCCUGGUGAUUGAGUGA [Fam2.1 aminoacylation ribozyme variant]	57.1	3.55	7.66	3.55	7.64	9.23
AUUACCCUGGUUAACGAGUGA [Fam2.1 aminoacylation ribozyme variant]	106	5.85	14.1	6.35	14.4	17.3
AUUACCCUGGUUACCGAGUGA [Fam2.1 aminoacylation ribozyme variant]	78.8	5.43	11.9	5.65	12.6	12.3
AUUACCCUGGUUAGCGAGUGA [Fam2.1 aminoacylation ribozyme variant]	22.1	2.2	4.21	2.1	4.28	5.27
AUUACCCUGGUUAUAGAGUGA [Fam2.1 aminoacylation ribozyme variant]	117	6.6	16.7	6.47	16	19.1
AUUACCCUGGUUAUCGCGUGA [Fam2.1 aminoacylation ribozyme variant]	93.6	4.99	12.4	6.04	11.6	13.5
AUUACCCUGGUUCUCGAGUGA [Fam2.1 aminoacylation ribozyme variant]	8.08	1.78	2.08	2.2	3.1	3.34
AUUACCCUGGUUGUCGAGUGA [Fam2.1 aminoacylation ribozyme variant]	1.97	1.38	1.91	1.33	1.85	3.23
AUUACCCUGUGCAUCGAGUGA [Fam2.1 aminoacylation ribozyme variant]	16.8	2.47	6.14	3.05	5.11	5.89
